Laboratory results as given in publication PMC12063518, “IAT4, a New Indolamine N‐Acetyltransferase in Saccharomyces cerevisiae Involved in Melatonin Biosynthesis” (Journal of Pineal Research, 2025).

Key:
Assay in all cases: purified protein
[1] = substrate: NCCc1c[nH]c2ccc(O)cc12; type: biochemical, Saccharomyces cerevisiae; details: 0.2 mM acetyl-CoA, pH 8.8, 37 °C
[2] = substrate: NCCc1c[nH]c2ccc(O)cc12; details: 0.2 mM acetyl-CoA, pH 8.8, 37 °C, 15 min enzymatic assay as Iat4, fit R2 = 0.825
[3] = substrate: COc1ccc2[nH]cc(CCN)c2c1; type: biochemical, Saccharomyces cerevisiae; details: 0.2 mM acetyl-CoA, pH 8.8, 37 °C, 15 min
[4] = substrate: NCCc1c[nH]c2ccccc12; type: biochemical, Saccharomyces cerevisiae; details: 0.2 mM acetyl-CoA, pH 8.8, 37 °C, 15 min

B1: Hpa2 (Saccharomyces cerevisiae S288C) (protein)
chain: MSNTSEDNITVRFVTENDKEGWQRLWKSYQDFYEVSFPDDLDDFNFGRFLDPNIKMWAAVAVESSSEKIIGMINFFNHMTTWDFKDKIYINDLYVDENSRVKGAGGKLIQFVYDEADKLGTPSVYWCTDESNHRAQLLYVKVGYKAPKILYKRKGY
notes: same enzymatic assay as Iat4
Km ([1]; 15 min enzymatic assay as Iat4, unit not given, mM from the preceding sentence): 6.82 ± 1.62 mM

B2: Paa1 (Saccharomyces cerevisiae S288C) (protein)
chain: MASSSSTLPLHMYIRPLIIEDLKQILNLESQGFPPNERASEEIISFRLINCPELCSGLFIREIEGKEVKKETLIGHIMGTKIPHEYITIESMGKLQVESSNHIGIHSVVIKPEYQKKNLATLLLTDYIQKLSNQEIGNKIVLIAHEPLIPFYERVGFKIIAENTNVAKDKNFAEQKWIDMERELIKEEYDN
Km [2]: 4250 ± 1460 µM

B3: Iat4 (Saccharomyces cerevisiae S288C) (protein)
chain: MSFENKLPTPLENNDAKGHMVCTLNKTTDARRAAETLSIAFSNSPAFHFICKKILNIPLAEKVPTRTITTDIISPFLDSPYGEISEVNTFDAVAVWSLPPHVPKARSNDAKFNKDFIDDLNARVKQVIPNGINYYYLFCIGKNLNEKGIRGSVRTIFEEYKRRADEENCAIVLEAIAEHAKSVYEYFGFRNYMTFKYGECEVDSNGNCDPNGEGFTAYLMIYHKDGNKVLKE
notes: GST fusion from pGEX-5X-1, E. coli Rosetta (DE3), glutathione Sepharose; native protein 232 aa
Km [3]: 353 µM | Km [4]: 356 µM | Km ([1]; 15 min): 0.93 mM
